Two substances from paper doi:10.1101/431494 can be followed below.

One may read the stoichiometry N as a count of units in the complex or per binding partner.

Experiment [1] addresses Haliangium ochraceum encapsulated ferritin as crystallised (PDB 5N5F) (Haliangium ochraceum) (UniProt D0LZ73). Kind of experiment: crystal structure.
Experiment [2] deals with Haliangium ochraceum encapsulated ferritin, residues 1-98, C-terminal hexa-histidine tagged variant (Haliangium ochraceum) (UniProt D0LZ73). In words: SDS-PAGE.

“Haliangium ochraceum encapsulated ferritin as crystallised (PDB 5N5F) (from UniProt D0LZ73 1-98) (domain or fragment)” had a stoichiometry N in experiment [1] of 10.

Turning to “Haliangium ochraceum encapsulated ferritin, residues 1-98, C-terminal hexa-histidine tagged variant (from UniProt D0LZ73 1-98) (domain or fragment)”, the stoichiometry N in experiment [2] turned out to be 2.
